These results are taken from patent US20030166037.

The subject of series [1] is T1, FasL1 FRET peptide (Aedans)EKELAELRESTS(Dabcyl)K-amide.
T1 sequence: KELAELRESTS

Series [2] addresses T2, Peptide D7 (Aedans)ERNITEGEARGSVIL(Dabcyl)K-amide (not fully specified).
T2 chain: ERNITEGEARGSVIL

The target in series [3] is T3, FasL1 FRET peptide (Aedans)…(Dabcyl)K-amide.
T3 chain: KELAELRESTS

Series [4] has as its target T4, 29CD23 FRET peptide (Aedans)…(Dabcyl)K-amide.
T4 chain: ADLSSFKSQEL

Series [5] addresses T3, FasL1 FRET peptide …. The series is described as follows: FRET peptide cleavage kinetics, non-linear fit of rate against substrate concentration (the filing calls it analysis of affinities).
Series [6] has as its target T4, 29CD23 FRET peptide …. The description is as above.

With MMP 13 (Chemicon, Cat. #CC068), the “FRET peptide cleavage in similar screening assays” value in series [1] is “shown in similar screening assays to be a suitable substrate for the metalloproteases MMP7 and MMP 13”.
Same read-out and setting: as for MMP7 (Chemicon, Cat. #CC1059), the entry is “shown in similar screening assays to be a suitable substrate for the metalloproteases MMP7 and MMP 13”.

B1: truncated recombinant human Aggrecanase-1 (pro- and protease domains with C-terminal FLAG epitope) (protein)
chain: FASLSRFVETLVVADDKMAAFHGAGLKRYLLTVMAAAAKAFKHPSIRNPVSLVVTRLVILGSGEEGPQVGPSAAQTLRSFCAWQRGLNTPEDSDPDHFDTAILFTRQDLCGVSTCDTLGMADVGTVCDPARSCAIVEDDGLQSAFTAAHELGHVFNMLHDNSKPCISLNGPLSTSRHVMAPVMAHVDPEEPWSPCSARFITDFLDNGYGHCLLDKPEAPLHLPVTGDYKDDDDKG
Turning to B1, the “FRET peptide cleavage activity” value in series [2] is on record as “Neither Aggrecanase-1 nor Aggrecanase-2 showed any activity on this peptide”. Also, the “Relative proteolytic Activity” value in series [3] is recorded as “*”.

B2: truncated recombinant human Aggrecanase-2 (pro- and protease domains with C-terminal FLAG epitope) (protein)
chain: SISRARQVELLLVADASMARLYGRGLQHYLLTLASIANRLYSHASIENHIRLAVVKVVVLGDKDKSLEVSKNAATTLKNFCKWQHQHNQLGDDHEEHYDAAILFTREDLCGHHSCDTLGMADVGTICSPERSCAVIEDDGLHAAFTVAHEIGHLLGLSHDDSKFCEETFGSTEDKRLMSSILTSIDASKPWSKCTSATITEFLDDGHGNCLLDLPRKQILGGDYKDDDDKG
On to B2, for which the “FRET peptide cleavage activity” value in series [2] was “Neither Aggrecanase-1 nor Aggrecanase-2 showed any activity on this peptide”. In addition, the “Relative proteolytic Activity” value in series [3] and in series [4] was “*****” in each case. Besides, the results for the Vm in series [3] and in series [4] were 2.8 rfu/min and 0.6 rfu/min, respectively. In addition, the Km (commonly the substrate concentration at which the rate is half of its maximum) in series [5] was 80 µM; in series [6], 40 µM.
